Measured values taken from US7261890.

Experiments:
[1] = target: recombinant canine IgE (canine); experiment: IgE binding ELISA of COS supernatant; second number is the relative expression level
[2] = target: recombinant canine IgE (canine); experiment: IgE binding ELISA, COS supernatant on plate-coated recombinant canine IgE, anti-dog Fc-HRP
[3] = target: recombinant canine IgE (canine); experiment: OD of IgE binding ELISA divided by IgG expression relative to chimeric 15A2, COS supernatant
[4] = target: recombinant canine IgE (canine); experiment: IgE binding ELISA of COS supernatant; in this cell the order is reversed (2.4 is the relative expression of Table 5, 0 the OD)

Binder | OD of IgE Binding (printed over relative expression level) [1] | OD at 650 nm (IgE Binding) [2] | Ratio IgE Binding/Expression [3] | OD of IgE Binding (printed over relative expression level) [4]
H74-1 caninized heavy chain with 15A2 chimeric light chain Lx (antibody, part only; not given: constant regions, V domains shown, part only) VH: EVQLVQSAAEVKKPGASVKVSCKTSGYSFTDYFMNWVQQAPGAGLDWMGRINPFNGDPFYNQKFKGRVTLTADTSTSTAYMELSSLRAEDAAVYYCARFYYGRYYAMDYWGQGTLVTV | 1.3 OD 650 nm | 1.3 OD 650 nm | 13 | 
H74-1 / Group 2-1 (CDR-grafted caninized 15A2, heavy and light) (antibody, part only; not given: constant regions, V domains shown, part only) VH: EVQLVQSAAEVKKPGASVKVSCKTSGYSFTDYFMNWVQQAPGAGLDWMGRINPFNGDPFYNQKFKGRVTLTADTSTSTAYMELSSLRAEDAAVYYCARFYYGRYYAMDYWGQGTLVTV |  |  |  | 0 OD 650 nm
